Data from US7846435 (TEIJIN, dated 2010).

Experiments:
[1] = target: T1, E. coli Verotoxin II (VT2) (E. coli, UniProt P09385 23-319; P09386 20-89)
T1 sequence 1: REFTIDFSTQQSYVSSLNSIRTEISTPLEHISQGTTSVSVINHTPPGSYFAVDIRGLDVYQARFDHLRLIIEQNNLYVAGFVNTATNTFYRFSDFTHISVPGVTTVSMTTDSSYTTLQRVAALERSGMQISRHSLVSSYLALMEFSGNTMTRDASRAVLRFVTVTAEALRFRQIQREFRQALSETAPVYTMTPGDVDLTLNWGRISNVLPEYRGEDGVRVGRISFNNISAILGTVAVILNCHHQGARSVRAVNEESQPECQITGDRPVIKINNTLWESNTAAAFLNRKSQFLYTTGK
T1 sequence 2: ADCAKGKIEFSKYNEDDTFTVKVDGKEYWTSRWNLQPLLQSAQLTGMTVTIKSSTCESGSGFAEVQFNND

[2] = target: T1, E. coli Verotoxin II (VT2); test: BIAcore (SPR)
[3] = target: VT2, VT2vx1 of E. coli 0157:H7 TK40 (E. coli); test: cell-based or functional assay

B1: humanized VTm1.1 antibody (HuVTm1.1) (antibody, V domains shown)
VH: EVQLVESGGGLVQPGGSLRLSCAASGFTFSSYGMSWVRQAPGKGLEWVATISTGGSYTYYPDSVKGRFTISRDNSKNTLYLQMNSLRAEDTAVYYCARRGDAWGNLDYWGQGTLVTVSS
VL: EIVLTQSPATLSVSPGERATLSCRASQTISNNLHWYQQKPGQAPRLLIKSASQSISGIPARFSGSGSGTDFTLTISSLESEDFAVYYCQQSYSWPLTFGQGTKVEIK
factor of difference in competition compared to the mouse antibody [1]: ≤ 2 fold
Kd [2]: 3.6 nM
koff [2]: 0.00034 s⁻¹
kon [2]: 95000 M⁻¹ s⁻¹
ED50 (µg/ml), in vitro neutralizing assay [3]: 0.35 µg/mL
